Test results from patent US20170107273A1 (JAPAN AS REPRESENTED BY DIRECTOR GENERAL OF NATIONAL …, published 2017).
* marks the point of attachment. Biotin = O=C1N[C@H]2[C@H](CS[C@H]2CCCCC(=O)*)N1

Assays:
[1] = target: E2 protein of the H77 strain (genotype 1a) on H77/JFH-1 HCVcc (Hepatitis C virus H77 strain (genotype …, UniProt P27958 384-746)); experiment: cell-based or functional assay
[2] = target: T1, E2 protein of the TH strain (genotype 1b) on TH/JFH-1 HCVcc (Hepatitis C virus TH strain (genotype …)); experiment: cell-based or functional assay
T1 chain: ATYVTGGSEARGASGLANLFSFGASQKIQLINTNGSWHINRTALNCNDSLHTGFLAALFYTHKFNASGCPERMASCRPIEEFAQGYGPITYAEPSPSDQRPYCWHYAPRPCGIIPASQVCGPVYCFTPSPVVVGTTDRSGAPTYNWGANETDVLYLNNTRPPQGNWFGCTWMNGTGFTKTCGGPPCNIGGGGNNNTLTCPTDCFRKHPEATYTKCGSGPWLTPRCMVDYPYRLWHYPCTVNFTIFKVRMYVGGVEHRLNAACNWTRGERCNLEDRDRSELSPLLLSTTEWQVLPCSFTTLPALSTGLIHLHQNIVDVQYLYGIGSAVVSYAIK

[3] = target: E2 protein of the S310 strain (genotype 3a) on S310/JFH-1 HCVcc (Hepatitis C virus S310 strain (genotype …)); experiment: cell-based or functional assay
[4] = target: E2 protein on J6/JFH-1 HCVcc-8W (J6/JFH-1 HCVcc after 8 rounds of subculture infection in the presence of the …); experiment: cell-based or functional assay
[5] = target: T2, QLINTNGSWHIN (SEQ ID NO: 37), TH E2 protein-derived peptide (Hepatitis C virus TH strain (genotype …, SMILES …)); experiment: ELISA on biotinylated 12-mer peptides on streptavidin plates
T2 construct: also called linear peptide of 12 amino acid residues
T2 peptide: Biotin-QLINTNGSWHING-NH2

[6] = target: T3, denatured TH E2-Fc protein (Hepatitis C virus TH strain (genotype …)); experiment: ELISA, biotinylated antibody on immobilized denatured TH E2-Fc, avidin-HRP
T3 construct: also called denatured E2 protein; not shown: Fc domain of human immunoglobulin (human IgG) from vector CDM-mIL7R-Ig
T3 chain: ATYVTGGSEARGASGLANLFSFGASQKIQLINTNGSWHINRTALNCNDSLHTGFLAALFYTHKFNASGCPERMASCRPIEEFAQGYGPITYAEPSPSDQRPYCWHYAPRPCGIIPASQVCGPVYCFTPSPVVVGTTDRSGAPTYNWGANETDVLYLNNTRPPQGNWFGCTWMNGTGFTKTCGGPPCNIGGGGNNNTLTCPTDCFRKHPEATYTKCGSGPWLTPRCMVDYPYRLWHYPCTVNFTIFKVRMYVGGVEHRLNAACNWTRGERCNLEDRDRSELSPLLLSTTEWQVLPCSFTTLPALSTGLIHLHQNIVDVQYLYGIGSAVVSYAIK

Chain of E2 protein of the H77 strain (genotype 1a) on H77/JFH-1 HCVcc (Hepatitis C virus H77 strain (P27958 384-746 limits assumed): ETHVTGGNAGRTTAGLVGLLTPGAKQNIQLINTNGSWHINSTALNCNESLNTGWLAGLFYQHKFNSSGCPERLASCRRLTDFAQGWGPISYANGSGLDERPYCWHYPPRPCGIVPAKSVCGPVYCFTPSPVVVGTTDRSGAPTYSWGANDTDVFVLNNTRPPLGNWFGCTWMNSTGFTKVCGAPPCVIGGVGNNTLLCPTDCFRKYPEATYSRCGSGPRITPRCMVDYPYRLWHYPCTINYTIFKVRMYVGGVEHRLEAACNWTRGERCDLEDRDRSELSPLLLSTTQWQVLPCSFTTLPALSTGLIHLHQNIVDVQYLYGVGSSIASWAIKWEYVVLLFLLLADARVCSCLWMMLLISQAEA

Binder | IC50 (µg/mL) of infection inhibiting activity against HCVcc (HCV core protein in Huh-7 cells) [1] [µg/mL] | IC50 (µg/mL) of infection inhibiting activity against HCVcc (HCV core protein in Huh-7 cells) [2] [µg/mL] | IC50 (µg/mL) of infection inhibiting activity against HCVcc (HCV core protein in Huh-7 cells) [3] [µg/mL] | IC50 (µg/mL), 50% infection inhibiting concentration (infectious titer, focus count on Huh-7 cells) [4] [µg/mL] | binding result [5] | binding result [6]
e2d066 IgG (antibody, V domains shown, Human IgG1 made in CHO-K1 cells; also called biotinylated e2d066 IgG; ed2066 IgG) VH: QVQLVQSGSDVKKPGSSVRVSCKASGGSFNSYAVNWVRQAPGQGLEWMGRIMPLVGLPEYAERFQERVTFTADKSTRTAYMDLTSLSSDDTAFYFCAVGVMKIFGEVPLNLDFWGQGTLVTVSS VL: QAVLTQPSSVSGSPGQSITISCTGTSNDVGSYRYVSWFQQHPGKAPKLMIYDVNKRPSGVSSRFSGSKSGNTASLTISGLQAEDEANYYCSSYTRSSSLAFGGGTKLTVLS | 3.3 | 0.11 | 1.03 | < 0.01 | no binding (tested: 1 µg/mL) | –
e2d081 IgG (antibody, V domains shown, Human IgG1 made in CHO-K1 cells; also called eE2d081 IgG) VH: QVQLVQSGSDVKKPGSSVRVSCKASGGSFNSYAVNWVRQAPGQGLEWMGRIMPLVGLPEYAERFQERVTFTADKSTRTAYMDLTSLSSDDTAFYFCAVGVMKIFGEVPLNLDFWGQGTLVTVSS VL: QSVLTQPPSVSAAPGQKVTISCSGTSSNIGDNYVSWYQHLPGSAPKLLIYDNNKRPSGIPDRFSGSKSGTSATLGITGLQTGDEADFYCGTWDSSLSSVVFGGGTKLTVLG | 0.66 | 0.05 | 0.5 | 0.67 | no binding (tested: 1 µg/mL) | –
e2d073 IgG (antibody, V domains shown, Human IgG1 made in CHO-K1 cells) VH: QVQLVQSGAEVKKPGSSVKVSCKASGASFNSFAIDWVRQAPGQGLEWMGRIIPIADVSDYAQKFQGRVTITADKSTRTAYMELTTLRSDDTAVYYCATSPMLTFGGPNAFGAFDVWGQGTMVTVSS VL: not shown | > 30 | 0.25 | 10.4 | 59.4 | no binding (tested: 1 µg/mL) | no binding
